Source: patent US20030119145A1
Several values for one entry are separate records, joined by “and”; a condition that tells them apart may be missing. Identical values can stand only once.

Key:
cytochrome c [1] = experiment: cell-based or functional assay
[2] = molecular target: CYP52A5A, omega-hydroxylating cytochrome P450 of Candida tropicalis (Candida tropicalis); experiment: cell-based or functional assay
cytochrome c [3] = molecular target: cytochrome c
[4] = molecular target: CYP52A5A, omega-hydroxylating cytochrome P450 of Candida tropicalis

Molecule: truncated (soluble) CPRA from Candida tropicalis, produced in Sf9 insect cells (from UniProt P37201 33-680) (enzyme)
- Sp. Act. (reduction of cytochrome c), soluble fraction of Sf9 cells expressing truncated (soluble) CPRA (cytochrome c [1]): 8.42 µmol/min/mg and 4.4 µmol/min/mg
- specific activity (reduction of cytochrome c) relative to microsomes of cells expressing the unmodified CPR (cytochrome c [1]): 20 fold
- Enhancement (%) of hydroxylation of C14 myristic acid, 4 µl sCPR added [2]: 2.4%
- Enhancement (%) of hydroxylation of C14 myristic acid, 8 µl sCPR added [2]: 3.4%
- Enhancement (%) of hydroxylation of C14 myristic acid, 16 µl sCPR added [2]: 3.4%
- Enhancement (%) of hydroxylation of C14 myristic acid, 32 µl sCPR added [2]: 8.1%
- Enhancement (%) of hydroxylation of C14 myristic acid, 64 µl sCPR added [2]: 6.9%
- enhancement of formation of omega-hydroxylauric acid by CYP52A5A on addition of soluble CPR (TLC autoradiogram) [2]: 4.4 fold
- increase of omega-hydroxylauric acid formation on addition of soluble CPR in the presence of membrane associated CPR [2]: 6%
- omega-hydroxylauric acid (nmol), CYP52A5A microsomes with soluble CPR added [2]: 0.07 nmol
- omega-hydroxylauric acid (nmol), CYP52A5A/CPRA microsomes with soluble CPR added [2]: 0.115 nmol

B1: soluble CPRA from Candida tropicalis produced in E. coli (pProEX-1), his-tag removed with TEV protease (protein)
chain: DTGFLNTDSGSNSRDVLLTLKKNNKNTLLLFGSQTGTAEDYANKLSRELHSRFGLKTMVADFADYDWDNFGDITEDILVFFIVATYGEGEPTDNADEFHTWLTEEADTLSTLKYTVFGLGNSTYEFFNAIGRKFDRLLSEKGGDRFAEYAEGDDGTGTLDEDFMAWKDNVFDALKNDLNFEEKELKYEPNVKLTERDDLSAADSQVSLGEPNKKYINSEGIDLTKGPFDHTHPYLARITETRELFSSKDRHCIHVEFDISESNLKYTTGDHLAIWPSNSDENIKQFAKCFGLEDKLDTVIELKALDSTYTIPFPTPITYGAVIRHHLEISGPVSRQFFLSIAGFAPDEETKKAFTRLGGDKQEFAAKVTRRKFNIADALLYSSNNAPWSDVPFEFLIENVPHLTPRYYSISSSSLSEKQLINVTAVVEAEEEADGRPVTGVVTNLLKNVEIVQNKTGEKPLVHYDLSGPRGKFNKFKLPVHVRRSNFKLPKNSTTPVILIGPGTGVAPLRGFVRERVQQVKNGVNVGKTLLFYGCRNSNEDFLYKQEWAEYASVLGENFEMFNAFSRQDPSKKVYVQDKILENSQLVHELLTEGAIIYVCGDASRMARDVQTTISKIVAKSREISEDKAAELVKSWKVQNRYQEDVW
- specific activity in reduction of cytochrome c (cytochrome c [3]): 198 U/mg

B2: truncated (soluble) CPRA from Candida tropicalis, produced in Sf9 insect cells (protein)
chain: MDTGFLNTDSGSNSRDVLLTLKKNNKNTLLLFGSQTGTAEDYANKLSRELHSRFGLKTMVADFADYDWDNFGDITEDILVFFIVATYGEGEPTDNADEFHTWLTEEADTLSTLKYTVFGLGNSTYEFFNAIGRKFDRLLSEKGGDRFAEYAEGDDGTGTLDEDFMAWKDNVFDALKNDLNFEEKELKYEPNVKLTERDDLSAADSQVSLGEPNKKYINSEGIDLTKGPFDHTHPYLARITETRELFSSKDRHCIHVEFDISESNLKYTTGDHLAIWPSNSDENIKQFAKCFGLEDKLDTVIELKALDSTYTIPFPTPITYGAVIRHHLEISGPVSRQFFLSIAGFAPDEETKKAFTRLGGDKQEFAAKVTRRKFNIADALLYSSNNAPWSDVPFEFLIENVPHLTPRYYSISSSSLSEKQLINVTAVVEAEEEADGRPVTGVVTNLLKNVEIVQNKTGEKPLVHYDLSGPRGKFNKFKLPVHVRRSNFKLPKNSTTPVILIGPGTGVAPLRGFVRERVQQVKNGVNVGKTLLFYGCRNSNEDFLYKQEWAEYASVLGENFEMFNAFSRQDPSKKVYVQDKILENSQLVHELLTEGAIIYVCGDASRMARDVQTTISKIVAKSREISEDKAAELVKSWKVQNRYQEDVW
- Conversion (%) of C14 myristic acid, 4 µl sCPR added to CYP52A5A microsomes [4]: 12.4%
- Conversion (%) of C14 myristic acid, 8 µl sCPR added to CYP52A5A microsomes [4]: 13.4%
- Conversion (%) of C14 myristic acid, 16 µl sCPR added to CYP52A5A microsomes [4]: 13.4%
- Conversion (%) of C14 myristic acid, 32 µl sCPR added to CYP52A5A microsomes [4]: 18.1%
- Conversion (%) of C14 myristic acid, 64 µl sCPR added to CYP52A5A microsomes [4]: 16.9%
- hydroxylation activity on addition of soluble CPR [4]: increased the hydroxylation activity approximately 5-fold
- net counts in product (omega-hydroxylation of [14C]-lauric acid), CYP52A5A microsomes with soluble CPR added [4]: 7930 net counts
- net counts in product (omega-hydroxylation of [14C]-lauric acid), CYP52A5A/CPRA microsomes with soluble CPR added [4]: 13200 net counts

B3: polyhistidine tagged soluble CPRA from Candida tropicalis, produced in E. coli (pET15b) (protein)
chain: MHHHHHHSSGLVPRGSHMDTGFLNTDSGSNSRDVLLTLKKNNKNTLLLFGSQTGTAEDYANKLSRELHSRFGLKTMVADFADYDWDNFGDITEDILVFFIVATYGEGEPTDNADEFHTWLTEEADTLSTLKYTVFGLGNSTYEFFNAIGRKFDRLLSEKGGDRFAEYAEGDDGTGTLDEDFMAWKDNVFDALKNDLNFEEKELKYEPNVKLTERDDLSAADSQVSLGEPNKKYINSEGIDLTKGPFDHTHPYLARITETRELFSSKDRHCIHVEFDISESNLKYTTGDHLAIWPSNSDENIKQFAKCFGLEDKLDTVIELKALDSTYTIPFPTPITYGAVIRHHLEISGPVSRQFFLSIAGFAPDEETKKAFTRLGGDKQEFAAKVTRRKFNIADALLYSSNNAPWSDVPFEFLIENVPHLTPRYYSISSSSLSEKQLINVTAVVEAEEEADGRPVTGVVTNLLKNVEIVQNKTGEKPLVHYDLSGPRGKFNKFKLPVHVRRSNFKLPKNSTTPVILIGPGTGVAPLRGFVRERVQQVKNGVNVGKTLLFYGCRNSNEDFLYKQEWAEYASVLGENFEMFNAFSRQDPSKKVYVQDKILENSQLVHELLTEGAIIYVCGDASRMARDVQTTISKIVAKSREISEDKAAELVKSWKVQNRYQEDVW
- Sp. Act. (reduction of cytochrome c), E. coli extract (cytochrome c [3]): 5.3 µmol/min/mg
- Sp. Act. (reduction of cytochrome c), concentrated & dialyzed purified protein (cytochrome c [3]): 420 µmol/min/mg

B4: full-length, membrane associated CPRA (NADPH-cytochrome P450 reductase) from Candida tropicalis (protein)
chain: MALDKLDLYVIITLVVAVAAYFAKNQFLDQPQDTGFLNTDSGSNSRDVLLTLKKNNKNTLLLFGSQTGTAEDYANKLSRELHSRFGLKTMVADFADYDWDNFGDITEDILVFFIVATYGEGEPTDNADEFHTWLTEEADTLSTLKYTVFGLGNSTYEFFNAIGRKFDRLLSEKGGDRFAEYAEGDDGTGTLDEDFMAWKDNVFDALKNDLNFEEKELKYEPNVKLTERDDLSAADSQVSLGEPNKKYINSEGIDLTKGPFDHTHPYLARITETRELFSSKDRHCIHVEFDISESNLKYTTGDHLAIWPSNSDENIKQFAKCFGLEDKLDTVIELKALDSTYTIPFPTPITYGAVIRHHLEISGPVSRQFFLSIAGFAPDEETKKAFTRLGGDKQEFAAKVTRRKFNIADALLYSSNNAPWSDVPFEFLIENVPHLTPRYYSISSSSLSEKQLINVTAVVEAEEEADGRPVTGVVTNLLKNVEIVQNKTGEKPLVHYDLSGPRGKFNKFKLPVHVRRSNFKLPKNSTTPVILIGPGTGVAPLRGFVRERVQQVKNGVNVGKTLLFYGCRNSNEDFLYKQEWAEYASVLGENFEMFNAFSRQDPSKKVYVQDKILENSQLVHELLTEGAIIYVCGDASRMARDVQTTISKIVAKSREISEDKAAELVKSWKVQNRYQEDVW
- net counts in product (omega-hydroxylation of [14C]-lauric acid), CYP52A5A/CPRA microsomes without soluble CPR [4]: 12400 net counts
